This is an account of results in patent publication US20260317437 (published 2026).

To fix the notation:
B1: VH Y33A (antibody, V domains shown)
VH: EVQLVESGGGLVQPGGSLRLSCAASGFNIYYNAIHWVRQAPGKGLEWVAEFSPYSGSTYYADSVKGRFTISADTSKNTAYLQMNSLRAEDTAVYYCARSAAIVDWYDYFKGFDYWGQGTLVTVSS
VL: DIQMTQSPSSLSASVGDRVTITCRASQSVSSAVAWYQQKPGKAPKLLIYSASSLYSGVPSRFSGSRSGTDFTLTISSLQPEDFATYYCQQYGSYLYTFGQGTKVEIK
B2: VH Y100bR (antibody, V domains shown)
VH: B1 VH with A33Y, Y106R
VL: B1 VL
B3: VL Y91D (antibody, V domains shown)
VH: B1 VH with A33Y
VL: B1 VL with Y91D
B4: VH W100aH (antibody, V domains shown)
VH: B1 VH with A33Y, W105H
VL: B1 VL
B5: VL Y94T (antibody, V domains shown)
VH: B1 VH with A33Y
VL: B1 VL with Y94T
B6: VH W100aL (antibody, V domains shown)
VH: B1 VH with A33Y, W105L
VL: B1 VL
B7: VH W100aA (antibody, V domains shown)
VH: B1 VH with A33Y, W105A
VL: B1 VL
B8: VH Y100bH (antibody, V domains shown)
VH: B1 VH with A33Y, Y106H
VL: B1 VL
B9: VL Y91H (antibody, V domains shown)
VH: B1 VH with A33Y
VL: B1 VL with Y91H
B10: VL Y91T (antibody, V domains shown)
VH: B1 VH with A33Y
VL: B1 VL with Y91T
B11: VH Y31H (antibody, V domains shown)
VH: B1 VH with Y31H, A33Y
VL: B1 VL
B12: VH W100aV (antibody, V domains shown)
VH: B1 VH with A33Y, W105V
VL: B1 VL
B13: VH Y30E (antibody, V domains shown)
VH: B1 VH with Y30E, A33Y
VL: B1 VL
B14: VL Y94K (antibody, V domains shown)
VH: B1 VH with A33Y
VL: B1 VL with Y94K
B15: VH Y100bK (antibody, V domains shown)
VH: B1 VH with A33Y, Y106K
VL: B1 VL
B16: VL S93V (antibody, V domains shown)
VH: B1 VH with A33Y
VL: B1 VL with S93V
B17: VL Y94N (antibody, V domains shown)
VH: B1 VH with A33Y
VL: B1 VL with Y94N
B18: VL Y94A (antibody, V domains shown)
VH: B1 VH with A33Y
VL: B1 VL with Y94A
B19: anti-GCGR IgG1 parent (antibody, V domains shown)
VH: B1 VH with A33Y
VL: B1 VL
B20: VH Y30N (antibody, V domains shown)
VH: B1 VH with Y30N, A33Y
VL: B1 VL
B21: VH Y100bQ (antibody, V domains shown)
VH: B1 VH with A33Y, Y106Q
VL: B1 VL
B22: VH S54R (antibody, V domains shown)
VH: B1 VH with A33Y, S55R
VL: B1 VL
B23: VH W100aF (antibody, V domains shown)
VH: B1 VH with A33Y, W105F
VL: B1 VL
B24: VH Y30H (antibody, V domains shown)
VH: B1 VH with Y30H, A33Y
VL: B1 VL
B25: VL Y91A (antibody, V domains shown)
VH: B1 VH with A33Y
VL: B1 VL with Y91A
B26: VH Y59A (antibody, V domains shown)
VH: B1 VH with A33Y, Y59A
VL: B1 VL
B27: VL Y55A (antibody, V domains shown)
VH: B1 VH with A33Y
VL: B1 VL with Y55A
B28: VH Y54A (antibody, V domains shown)
VH: B1 VH with A33Y, Y54A
VL: B1 VL
B29: VH F51A (antibody, V domains shown)
VH: B1 VH with A33Y, F51A
VL: B1 VL
B30: VL Y96A (antibody, V domains shown)
VH: B1 VH with A33Y
VL: B1 VL with Y96A
B31: VH Y31A (antibody, V domains shown)
VH: B1 VH with Y31A, A33Y
VL: B1 VL
B32: VH Y31W (antibody, V domains shown)
VH: B1 VH with Y31W, A33Y
VL: B1 VL
B33: VH Y31I (antibody, V domains shown)
VH: B1 VH with Y31I, A33Y
VL: B1 VL
B34: VH Y31K (antibody, V domains shown)
VH: B1 VH with Y31K, A33Y
VL: B1 VL
B35: VH W100aK (antibody, V domains shown)
VH: B1 VH with A33Y, W105K
VL: B1 VL
B36: VH W100aR (antibody, V domains shown)
VH: B1 VH with A33Y, W105R
VL: B1 VL
B37: VH Y31R (antibody, V domains shown)
VH: B1 VH with Y31R, A33Y
VL: B1 VL
B38: VH Y31E (antibody, V domains shown)
VH: B1 VH with Y31E, A33Y
VL: B1 VL
B39: VH Y31D (antibody, V domains shown)
VH: B1 VH with Y31D, A33Y
VL: B1 VL
B40: VH Y31S (antibody, V domains shown)
VH: B1 VH with Y31S, A33Y
VL: B1 VL
B41: VH Y31N (antibody, V domains shown)
VH: B1 VH with Y31N, A33Y
VL: B1 VL

What is called Kd is the equilibrium constant for the complex coming apart. A high value points to a looser complex.

Numbering of substitutions follows the chain as printed. In names and notes the source's numbering stands.

In the first test the target is T1, GCGR extracellular domain (human, UniProt P47871). Description: SPR. On the technique in general: In SPR one partner is held on a chip, and binding of the other changes the refractive index at the surface.
T1 sequence (P47871 26-477): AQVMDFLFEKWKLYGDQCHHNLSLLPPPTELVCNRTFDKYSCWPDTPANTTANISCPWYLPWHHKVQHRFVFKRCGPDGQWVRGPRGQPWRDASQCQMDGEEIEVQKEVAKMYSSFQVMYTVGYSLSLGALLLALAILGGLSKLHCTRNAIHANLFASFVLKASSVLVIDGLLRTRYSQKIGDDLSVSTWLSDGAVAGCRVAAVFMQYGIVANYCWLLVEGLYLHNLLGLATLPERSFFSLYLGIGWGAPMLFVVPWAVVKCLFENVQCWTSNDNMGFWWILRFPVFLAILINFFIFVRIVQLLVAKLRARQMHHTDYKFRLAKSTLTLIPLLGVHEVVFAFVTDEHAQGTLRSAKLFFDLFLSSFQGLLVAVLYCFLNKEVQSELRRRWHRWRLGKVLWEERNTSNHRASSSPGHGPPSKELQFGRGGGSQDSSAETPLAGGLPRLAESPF
B1: the Kd came out at 267 nM.
With B2, the Kd was found to be 7.08 nM.
The same measure, in the same setting: the same measure for B3: 7.08 nM; for B4: 41.7 nM.
Take B5: binding was put at a Kd of 2.71 nM.
The same measure, in the same setting: the same measure for B6: 5.24 nM.
Same read-out and setting: then B7, with 16.3 nM; and B8, with 2.9 nM; and B9, with 2.82 nM.
B10 showed a Kd of 2.42 nM.
With B11, the Kd came out at 17.5 nM.
The same measure, in the same setting: then B12, with 5.88 nM; and B13, with 45.1 nM; and B14, with 1.6 nM.
As for B15, the Kd stood at 7.75 nM.
Still for that read-out and setting: the same measure for B16: 1.74 nM; for B17: 1.84 nM; for B18: 2.64 nM.
On the same count and under the same terms, the same measure for B19: 2.53 nM; for B20: 103 nM; for B21: 6.08 nM.
For the molecule B22, binding was characterised by a dissociation constant (Kd) of 16 nM.
The same measure, in the same setting: the same measure for B23: 5.2 nM; for B24: 5.14 nM; for B25: 98.5 nM.

A further test addresses T1, GCGR extracellular domain. Description: SPR. The source holds these as a separate data set.
In turn, B1 had a Kd of 53 nM.
Still for that read-out and setting: the same measure for B26: 0.32 nM.
Still for that read-out and setting: then B7, with 11 nM; and B27, with 0.74 nM; and B28, with 46 nM.
The molecule B29 had a Kd of 1.5 nM.
On the same count and under the same terms, then B30, with 0.93 nM; and B31, with 206 nM.
Same read-out and setting: then B19, with 0.61 nM; and B25, with 0.84 nM.

The next test addresses T1, GCGR extracellular domain. Description: SPR. This is another data set of the same source.
For B32, the binding result was “no binding”.
Consider B33, for which the binding result is on record as “no binding”.
Same read-out and setting: the same measure for B34: “no binding”; for B35: “no binding”; for B31: “no binding”.
Same read-out and setting: then B36, with “no binding”; and B37, with “no binding”.
As for B38, the binding result is on record as “no binding”.
Take B39: the binding result was “no binding”.
Still for that read-out and setting: the same measure for B40: “no binding”; for B41: “no binding”.

The target in another test is T1, GCGR extracellular domain. The experiment in a line: SPR. The source holds these as a separate data set.
B2: the Kd was found to be 7.08 nM.
On the same count and under the same terms, then B6, with 5.24 nM.
Same read-out and setting: then B8, with 2.9 nM; and B12, with 5.88 nM.
On the same count and under the same terms, the same measure for B14: 1.6 nM.
As for B15, the Kd is 7.75 nM.
Turning to B19, the Kd was 2.53 nM.
In turn, B21 returned a Kd of 6.08 nM.
In the case of B23, the Kd was found to be 5.2 nM.
Same read-out and setting: then B24, with 5.14 nM.
